Test results reported in the supplement of paper PMC12764529.
± gives the half width of the 95% confidence interval.

Assays:
[1] = folding stability dG unfold from trypsin proteolysis; higher = more stable
Outline: (§1)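 Designed mini-proteins with no cysteine and under 80 residues were kept only if AlphaFold2 dimer inter-PAE was above 15. In a PA-tagged cDNA display construct, they were digested with trypsin and chymotrypsin and then sequenced. K50 was inferred by Bayesian fitting of counts, and unfolding free energy was derived per protease or combined against a sequence-predicted unfolded-state K50 and a shared folded-state K50.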

[2] = folding stability dG unfold (combined trypsin and chymotrypsin); higher = more stable
Outline: as §1

[3] = folding stability dG unfold from chymotrypsin proteolysis; higher = more stable
Outline: as §1

| Sequence | folding stability dG unfold [1] [kcal/mol] | folding stability dG unfold [2] [kcal/mol] | folding stability dG unfold [3] [kcal/mol] |
| --- | --- | --- | --- |
| SAGGSPTVTFDPETGAVTVTVNGQTQTAYIPPGDKVTLTVTFQSGGSGVPFTLELEVTVTPPKPLKSAGGSA [r2_116_TrMRF] | 1.45 ± 0.074 | 2.17 ± 0.12 | 2.48 ± 0.061 |
| SAGGSQKLPPGETIPIRIPGFQIEISPDKTTIHVMWPDPDEAKDFLKNLPFPIKIDKVEVMPPEDFSAGGSA [r2_418_TrROS] | 0.515 ± 0.066 | 0.85 ± 0.11 | 1.01 ± 0.035 |
| SAGGSRIEEVAREILEKLPLKPGEPVLVEVEVDFPDGLRIRLKVEAYVDPETGEVHLKVEILEIEPVSAGGS [r16_634_TrMRF] | 3.24 ± 0.039 | 3.06 ± 0.069 | 2.91 ± 0.064 |
| SAGGSRRLEFMFYNPEAGFLIKIEVTYDPDDPGYYKIRVEVYPPDGEPIFPVEIYVPPGDDIKIKFPSAGGS [r16_654_TrROS] | 3.54 ± 0.35 | 4.31 ± 0.29 | 4.42 ± 0.13 |
| SAGGSRVEVEVEVEGDTLRVRLRVYSEGGPPLLEAEAELPLGPVPPLPPVEVRVDPLEEEYPAKYFSAGGSA [r2_332_TrMRF] | 2.82 ± 0.14 | 2.5 ± 0.31 | 2.28 ± 0.17 |
| SAGGSSELEEAIEKARAEPGVLVERTVKLPDGRELKVEVDPKTGIVTLTETLPDGSTTTKEETYEPSAGGSA [r2_263_JUSTAS] | 0.512 ± 0.088 | 1.11 ± 0.13 | 1.26 ± 0.085 |
| SAGGSSMPLVKKEVDATRPDGSPLSFEEYLSSLKPNIRSEPIPNGKTVVTAPDPATGSTYTITIEESAGGSA [r2_234_JUSTAS] | -1.31 ± 0.19 | -0.428 ± 0.079 | -0.37 ± 0.14 |
| SAGGSSMTTKTINLSLPNGVEELTITITTPPDGTYNATFYFPKTGKKTTHNFTSEEEIEKFIEELIKESAGG [r13_857_JUSTAS] | 2.97 ± 0.086 | 4.01 ± 0.089 | 4.291 ± 0.036 |
| SAGGSSMTVTKLPTNKTVTTRPLPSSSSVTTTTTFDPNSPVATVTTTDTSSDTSTTTTVPLGPGAFSAGGSA [r2_114_JUSTAS] | 0.783 ± 0.035 | 0.824 ± 0.11 | 0.892 ± 0.06 |
| SAGGSSPAARRLAKRIAKLMMKKHPPGEKRTVEIELPDGVEIKATFNNNGNIDDIEIRSPDGEPIISAGGSA [r2_84_TrROS] | 0.771 ± 0.17 | 0.644 ± 0.36 | 0.482 ± 0.4 |
| SAGGSSPPTVEVSFDPASGTLTITTPDGTTTYSVKSVTVTRLPPELTLITITLEDGTVLTFELVVASAGGSA [r2_268_JUSTAS] | 3.36 ± 0.15 | 4.52 ± 0.13 | 4.65 ± 0.063 |
| SAGGSSSASNISTNPTPLPEESVTVTASSDGVITVTITDPNGVPTTYTYNIPSGSIEEAIAEAISSSAGGSA [r2_298_JUSTAS] | 1.86 ± 0.059 | 1.97 ± 0.094 | 2.06 ± 0.09 |
| SAGGSSSLLEGLPGVVEVTVTTSLSVRPLSPEAARANPGQADRTVPLPRTTVTVTVEFPVSPAGILSAGGSA [r2_404_JUSTAS] | 0.509 ± 0.1 | 0.94 ± 0.15 | 1.15 ± 0.067 |
| SAGGSSSSSYTLNYPDKRVNVSVSHPPSGPLNVTITVYDPNGNKTKTITSPVGSLEKAKSLLEKLLSAGGSA [r2_82_JUSTAS] | 1.63 ± 0.04 | 1.45 ± 0.11 | 1.28 ± 0.062 |
| SAGGSSVRISFPNGYTVEITVTEDSATITLRSPTSTETVEFPSSVQVTITGPLNQPVTFDIPSSSESAGGSA [r2_57_TrMRF] | 2.77 ± 0.077 | 2.8 ± 0.057 | 2.811 ± 0.024 |
| SAGGSTTITLPDGRTATVEPDPNGVERYTVPGHPGVYIEKDPSTNKLTVTTVDPSSGSPVTSVIEESAGGSA [r2_477_JUSTAS] | 0.243 ± 0.043 | 0.0736 ± 0.15 | -0.572 ± 0.44 |
| SAGGSVEEIAEELAKQPSYTKVTVTLFVDPDGTARVVITDVENGKTYTVPLPPAATPVGTLTLPVESAGGSA [r2_74_JUSTAS] | 1.56 ± 0.026 | 1.63 ± 0.083 | 1.68 ± 0.046 |
| SAGGSVEELRELARKLAEELGLEVVEVEVEEREDGKVTVTVTIKGPPKVEIKLEVTENEVKITEIKPSAGGS [r8_432_TrROS_Hall] | 3.36 ± 0.25 | 3.42 ± 0.23 | 3.35 ± 0.26 |
| SAGGSVKIKIKVPKDNPEAKKLAEKLRKLPGVKEVKVKKVKEINGYLVLEIEVEVSPEVKEKLKELLSAGGS [r16_394_TrROS_Hall] | 2.71 ± 0.25 | 2.97 ± 0.34 | 2.75 ± 0.18 |
| SAGGSVKVELKGDYLVITIPVEVPGDKDKPALLTIVIDLSPNGKPARIEMRSLETGKPLGEFTIDLSAGGSA [r2_412_TrMRF] | 2.14 ± 0.099 | 2.43 ± 0.07 | 2.63 ± 0.04 |
| SAGGSVRLELEGVNPETGERYRLEFELPPVPLPPVLVVPLEDLELLRRLGIPEDAAVFPELGLVVVASAGGS [r16_194_TrMRF] | 2.29 ± 0.082 | 2.66 ± 0.12 | 2.76 ± 0.051 |

| Sequence | folding stability dG unfold [1] [kcal/mol] | folding stability dG unfold [2] [kcal/mol] | folding stability dG unfold [3] [kcal/mol] |
| --- | --- | --- | --- |
| SAGGSVSDIVNELKKKGIKVTSIEKTEDGTYVITTELPNGVKKEYKYSTSDPKNVAALKAAIPEELVSAGGS [r16_821_JUSTAS] | 1.44 ± 0.038 | 1.36 ± 0.066 | 1.19 ± 0.072 |
| SAGGSVTKEELEKLNVEEVAALLPEDYTVTVVPGTGVVVISAPDRTLTITHDPATGKVTLTSEVEVSAGGSA [r2_470_JUSTAS] | 1.41 ± 0.1 | 0.797 ± 0.15 | 0.125 ± 0.21 |
| SAGGSVVPASEPVTIPDTATGTTLTLPTPAGATITPDPATNTTTVTFTDGDRASSVTFVNGAATSASTASAG [r5_22_JUSTAS] | -0.53 ± 0.098 | -0.162 ± 0.11 | -0.139 ± 0.21 |
| SAGGSWIEFMIMVPYPDGKPLEDLPPEEVVDIAKTFMSDFGYKIKDINVQYNPDDGYVHVPIEIKPSAGGSA [r2_237_TrROS] | 1.26 ± 0.074 | 1.21 ± 0.2 | 1.09 ± 0.2 |
| SAGGSYRVETTKTEVSEATAPDGTAYRVTTTTTVVTYPDGTRRTVTNVTITDPATGVPTSSTATTTAVSAGG [r13_133_JUSTAS] | 2.45 ± 0.048 | 2.25 ± 0.03 | 2.056 ± 0.017 |
| SAGGTAEEIAEKVRDIFQDNGYPIEVEPRRWDPNNYVTWRMRMPGWSIEIQWDPDDLEVEIEIEPMPSAGGS [r8_157_TrROS] | 2.47 ± 0.073 | 3.24 ± 0.2 | 3.71 ± 0.11 |
| SAGGTAEEIAETIAEKFSKKNNNPNVRITVEKEPDSLRIDITFPNNGHEIEIEFEDGGIRKIEWEPYSAGGS [r16_397_TrROS] | 0.276 ± 0.27 | -0.269 ± 0.94 | -0.251 ± 0.85 |
| SAGGTAEELAKNIADNLQKAGWIKKVEVEVHPSPDGNIMVRIEIKIEPPPPPPPPKVEYDENGKPRYDSAGG [r13_957_TrROS] | 1.04 ± 0.12 | 0.924 ± 0.39 | 0.662 ± 0.23 |
| SAGGTIEITFMVRTPEEAEDMADMIARMLAREHGMKVTIDDVEVHEYKDPEDGQEYYMVEFRIEIKPSAGGS [r8_171_TrROS] | 3.23 ± 0.081 | 3.88 ± 0.11 | 4.146 ± 0.04 |
| SAGGTIMIPFDTPEQAKDIREAAKDGEPIEIRPPDGKPIKFKIKDVEVDPNSGWLVIKIPNGRTIPISAGGS [r16_254_TrROS] | -0.179 ± 0.19 | 0.0332 ± 0.097 | 0.151 ± 0.15 |
| SAGGTMIELKSASGKTALLPLPPGTERVEREGDKWTIYLPPEYTLTVEITAPVPPSSLFDLKVLSRKLSAGG [r19_274_JUSTAS] | 0.595 ± 0.077 | 0.734 ± 0.31 | 0.509 ± 0.35 |
| SAGGTSYLVRLELYETSTGEPLELELPFPNLPAEEVEELAKELAKALAEPTGNDLKARVEVVPLPDESAGGS [r8_185_TrMRF] | 0.0944 ± 0.031 | 0.53 ± 0.052 | 0.717 ± 0.054 |
| SAGGVDPSKLTPLSTREVPVDDRRLLVTTYLTPDGKPLYTVTVLDAEGRPLGSELVPPEKVSADGRLESAGG [r13_447_JUSTAS] | -0.0975 ± 0.1 | 0.334 ± 0.066 | 0.506 ± 0.11 |
| SAGGVEELAKELAERLREELERRLGVEKVEVVDVEVVEVDEETGTVTVRITVRLPDGELLELELELHLDSAG [r5_20_TrROS_Hall] | 3.47 ± 0.17 | 3.39 ± 0.15 | 3.08 ± 0.13 |
| SAGGVERDPPGKNVYYVEIEIKIEIRDPNNGKPLEIPVPITYPFKSPADALEQMRRQARNLAEKLLNSAGGS [r16_624_TrROS] | 1.78 ± 0.041 | 2.03 ± 0.13 | 2.18 ± 0.1 |
| SAGGVIELPNAGLPEFLAFLKEAAEKGIPNVTVILTGPSKPYLAIYDPKKNIVTVLHPNGKTYTFKASAGGS [r16_481_TrMRF] | 2.76 ± 0.15 | 2.91 ± 0.12 | 2.99 ± 0.058 |
| SAGGVIPPSATITTLKTYPDGTVLTNVTFPDGTPMTVTLTRETLPDGSVVLKFTNPATGEELATFPVSSAGG [r13_527_JUSTAS] | 1.93 ± 0.063 | 2.15 ± 0.088 | 2.15 ± 0.062 |
| SAGGVITAVESTTTPLPNGTVLVTLTLKEGGETLQVTVTVSPDGVTVTTPSGKTSTIAPEELASLLPSAGGS [r16_593_JUSTAS] | 1.31 ± 0.025 | 1.34 ± 0.076 | 1.39 ± 0.025 |
| SAGGVLETKLPGGVSVTYSETPFVKDGREYLVLPAAAGDPAGAPFVTTTVVEPETGEVLETTETPLASAGGS [r8_492_JUSTAS] | 0.331 ± 0.059 | 0.465 ± 0.1 | 0.536 ± 0.13 |
| SAGGVPVSVEVDPRGEVTITNPVNGSSLVIPVPPDAEVTVVSLPPSSVTVRVTVGGEERDIVLPPSSVSAGG [r19_309_JUSTAS] | 0.587 ± 0.023 | 0.621 ± 0.065 | 0.662 ± 0.034 |
| SAGGVRKIEFRIDLPDPNVTIEEIVERILKELGLKPEEAIVEVLKIEEVEDEDGIPHIRIDVKIYVPDKSAG [r5_528_TrMRF] | 3.54 ± 0.1 | 3.21 ± 0.059 | 2.98 ± 0.031 |
